What was measured:
[1] = target: HCV E2 on E2-CT26 cells (Hepatitis C virus (genotype 1a)) (UniProt P27958); assay: flow cytometry; details: Flow cytometry: 250 nM aptamer, 1e6 cells, 37 C 15 min; selection buffer 25 mM Tris-HCl, 50 mM KCl, 200 mM NaCl, 0.2 mM EDTA, 5% glycerol, 0.5 mM DTT (pH not …)
[2] = target: GST-E2 (Hepatitis C virus) (UniProt P27958); assay: competition (flow cytometry); details: Flow cytometry: 250 nM aptamer, 1e6 cells, 37 C 15 min; selection buffer 25 mM Tris-HCl, 50 mM KCl, 200 mM NaCl, 0.2 mM EDTA, 5% glycerol, 0.5 mM DTT (pH not …); scale: % inhibition of E2 binding to Huh7.5.1 cells

Row | Sequence | Kd [1] | binding signal [2]
1 | CGCCGTATTAAGATTGGGAGACCTGGTAGA [ZE3] | 3.22 nM | –
2 | GAATGAGGAATAATCTAGCTCCTTCGCTGA [ZE2] | 1.05 nM | 80
3 | GGGCCTCGATTTAGTTCGCGGCCATAGGGC [ZE4] | 8.85 nM | –
4 | TCCATTCATGTAACGAACATAGTTTTGGCA [ZE5] | 4.29 nM | –
